{"source": "paper PMC8809517", "about": "“Cofactor-independent RNA editing by a synthetic S-type PPR protein”", "assay_in_all_cases": "high-throughput RNA pulldown from lysate on Ni-NTA beads; HRP: 50 mM Tris pH 8, 150 mM NaCl, 1 mM beta-mercaptoethanol, 50 ug/ml BSA, 3 ug/ml yeast RNA, 0.5% heparin; ITC and FP: Tris pH 8, 200 mM KCl, 5% glycerol; MST: 50 mM Tris pH 8, 200 mM NaCl, 1 mM DTT, BSA, heparin, 0.05% Tween 20", "conditions_in_all_cases": "tags: N-terminal His-eGFP", "key": {"[1]": {"biological_target": "T1, GFP-9S library array, motif 4 ND N98G;D124H (synthetic construct, N98G;D124H)", "T1 chain": "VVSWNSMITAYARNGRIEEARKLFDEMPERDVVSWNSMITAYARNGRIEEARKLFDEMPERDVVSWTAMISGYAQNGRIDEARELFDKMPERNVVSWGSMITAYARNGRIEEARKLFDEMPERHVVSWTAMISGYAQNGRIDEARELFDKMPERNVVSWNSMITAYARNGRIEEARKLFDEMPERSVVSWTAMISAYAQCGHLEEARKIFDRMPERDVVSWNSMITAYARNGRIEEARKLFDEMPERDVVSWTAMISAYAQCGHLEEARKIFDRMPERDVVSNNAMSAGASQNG"}, "[2]": {"biological_target": "T2, GFP-9S library array, motif 4 ND N98Y;D124S (synthetic construct, N98Y;D124S)", "T2 chain": "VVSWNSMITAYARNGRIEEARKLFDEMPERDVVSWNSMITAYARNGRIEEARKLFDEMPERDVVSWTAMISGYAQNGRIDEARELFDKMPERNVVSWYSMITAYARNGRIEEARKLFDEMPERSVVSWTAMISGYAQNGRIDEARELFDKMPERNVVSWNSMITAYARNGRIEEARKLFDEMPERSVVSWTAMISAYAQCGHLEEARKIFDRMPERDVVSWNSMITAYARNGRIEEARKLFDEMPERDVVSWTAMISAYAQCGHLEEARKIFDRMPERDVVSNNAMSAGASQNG"}, "[3]": {"biological_target": "T3, GFP-9S library array, motif 4 ND N98W;D124K (synthetic construct, N98W;D124K)", "T3 chain": "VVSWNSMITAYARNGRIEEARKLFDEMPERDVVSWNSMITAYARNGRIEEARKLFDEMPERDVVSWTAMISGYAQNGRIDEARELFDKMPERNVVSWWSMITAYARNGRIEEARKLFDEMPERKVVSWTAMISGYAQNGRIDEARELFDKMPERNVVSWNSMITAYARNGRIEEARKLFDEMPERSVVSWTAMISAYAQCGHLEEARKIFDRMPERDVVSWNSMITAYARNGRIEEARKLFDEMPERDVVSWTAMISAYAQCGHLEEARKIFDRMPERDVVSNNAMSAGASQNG"}, "[4]": {"biological_target": "T4, GFP-9S library array, motif 4 ND N98H;D124L (synthetic construct, N98H;D124L)", "T4 chain": "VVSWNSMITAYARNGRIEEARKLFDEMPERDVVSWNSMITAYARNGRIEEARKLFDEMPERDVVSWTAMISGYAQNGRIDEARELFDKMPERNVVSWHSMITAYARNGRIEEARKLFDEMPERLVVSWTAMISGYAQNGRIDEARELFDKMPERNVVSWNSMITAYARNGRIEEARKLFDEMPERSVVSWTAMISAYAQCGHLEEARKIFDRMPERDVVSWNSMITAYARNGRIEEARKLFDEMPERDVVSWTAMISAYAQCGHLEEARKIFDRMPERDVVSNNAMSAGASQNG"}, "[5]": {"biological_target": "T5, GFP-9S library array, motif 4 ND N98C;D124A (synthetic construct, N98C;D124A)", "T5 chain": "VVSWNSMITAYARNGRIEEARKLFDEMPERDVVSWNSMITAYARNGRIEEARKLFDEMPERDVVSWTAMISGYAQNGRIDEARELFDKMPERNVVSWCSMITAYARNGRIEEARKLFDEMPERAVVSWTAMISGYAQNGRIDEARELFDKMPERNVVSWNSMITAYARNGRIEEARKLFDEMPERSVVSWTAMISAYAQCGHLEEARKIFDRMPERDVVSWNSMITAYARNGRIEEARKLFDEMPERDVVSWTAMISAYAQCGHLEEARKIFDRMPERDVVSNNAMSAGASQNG"}}}
{"binder": "AUUAGACGUGA (ssRNA)", "note": "[Cy5-rpoA-G]", "values": [{"measurement": "Kd", "setting": "[1]; label: 5' Cy5", "value": 108, "unit": "nM"}, {"measurement": "Kd", "setting": "[2]; label: 5' Cy5", "value": 224, "unit": "nM"}, {"measurement": "Kd", "setting": "[3]; label: 5' Cy5", "value": 48.1, "unit": "nM"}, {"measurement": "Kd", "setting": "[4]; label: 5' Cy5", "value": 55.6, "unit": "nM"}, {"measurement": "Kd", "setting": "[5]; label: 5' Cy5", "value": 92.3, "unit": "nM"}]}
{"binder": "AUUAAACGUGA (ssRNA)", "note": "[IR-rpoA-A]", "values": [{"measurement": "Kd", "setting": "[1]; label: 5' IRDye 800CW", "value": 114, "unit": "nM"}, {"measurement": "Kd", "setting": "[2]; label: 5' IRDye 800CW", "value": 911, "unit": "nM"}, {"measurement": "Kd", "setting": "[3]; label: 5' IRDye 800CW", "value": 177, "unit": "nM"}, {"measurement": "Kd", "setting": "[4]; label: 5' IRDye 800CW", "value": 82.1, "unit": "nM"}, {"measurement": "Kd", "setting": "[5]; label: 5' IRDye 800CW", "value": 98.2, "unit": "nM"}]}
{"binder": "AUUAUACGUGA (ssRNA)", "note": "[IR-rpoA-U]", "values": [{"measurement": "Kd", "setting": "[1]; label: 5' IRDye 800CW", "value": 136, "unit": "nM"}, {"measurement": "Kd", "setting": "[2]; label: 5' IRDye 800CW", "value": 134, "unit": "nM"}, {"measurement": "Kd", "setting": "[3]; label: 5' IRDye 800CW", "value": 154, "unit": "nM"}, {"measurement": "Kd", "setting": "[4]; label: 5' IRDye 800CW", "value": 32.7, "unit": "nM"}, {"measurement": "Kd", "setting": "[5]; label: 5' IRDye 800CW", "value": 159, "unit": "nM"}]}
{"binder": "AUUACACGUGA (ssRNA)", "note": "[Cy5-rpoA]", "values": [{"measurement": "Kd", "setting": "[1]; label: 5' Cy5", "value": 91.1, "unit": "nM"}, {"measurement": "Kd", "setting": "[2]; label: 5' Cy5", "value": 168, "unit": "nM"}, {"measurement": "Kd", "setting": "[3]; label: 5' Cy5", "value": 72.6, "unit": "nM"}, {"measurement": "Kd", "setting": "[4]; label: 5' Cy5", "value": 60.1, "unit": "nM"}, {"measurement": "Kd", "setting": "[5]; label: 5' Cy5", "value": 114, "unit": "nM"}]}
